Earlier results in paper PMC5871566.
Where two headings read alike, the source gives them in different places.

How the values were obtained:
C4b (Homo sapiens) [1] = biological target: C4b (Homo sapiens) (UniProt P0C0L4)
C4b (Homo sapiens) [2] = biological target: C4b (Homo sapiens) (UniProt P0C0L4); remark: listed apart in the source

UniProt P0C0L4, sequence (P0C0L4 20-1744, chain 1 of 2): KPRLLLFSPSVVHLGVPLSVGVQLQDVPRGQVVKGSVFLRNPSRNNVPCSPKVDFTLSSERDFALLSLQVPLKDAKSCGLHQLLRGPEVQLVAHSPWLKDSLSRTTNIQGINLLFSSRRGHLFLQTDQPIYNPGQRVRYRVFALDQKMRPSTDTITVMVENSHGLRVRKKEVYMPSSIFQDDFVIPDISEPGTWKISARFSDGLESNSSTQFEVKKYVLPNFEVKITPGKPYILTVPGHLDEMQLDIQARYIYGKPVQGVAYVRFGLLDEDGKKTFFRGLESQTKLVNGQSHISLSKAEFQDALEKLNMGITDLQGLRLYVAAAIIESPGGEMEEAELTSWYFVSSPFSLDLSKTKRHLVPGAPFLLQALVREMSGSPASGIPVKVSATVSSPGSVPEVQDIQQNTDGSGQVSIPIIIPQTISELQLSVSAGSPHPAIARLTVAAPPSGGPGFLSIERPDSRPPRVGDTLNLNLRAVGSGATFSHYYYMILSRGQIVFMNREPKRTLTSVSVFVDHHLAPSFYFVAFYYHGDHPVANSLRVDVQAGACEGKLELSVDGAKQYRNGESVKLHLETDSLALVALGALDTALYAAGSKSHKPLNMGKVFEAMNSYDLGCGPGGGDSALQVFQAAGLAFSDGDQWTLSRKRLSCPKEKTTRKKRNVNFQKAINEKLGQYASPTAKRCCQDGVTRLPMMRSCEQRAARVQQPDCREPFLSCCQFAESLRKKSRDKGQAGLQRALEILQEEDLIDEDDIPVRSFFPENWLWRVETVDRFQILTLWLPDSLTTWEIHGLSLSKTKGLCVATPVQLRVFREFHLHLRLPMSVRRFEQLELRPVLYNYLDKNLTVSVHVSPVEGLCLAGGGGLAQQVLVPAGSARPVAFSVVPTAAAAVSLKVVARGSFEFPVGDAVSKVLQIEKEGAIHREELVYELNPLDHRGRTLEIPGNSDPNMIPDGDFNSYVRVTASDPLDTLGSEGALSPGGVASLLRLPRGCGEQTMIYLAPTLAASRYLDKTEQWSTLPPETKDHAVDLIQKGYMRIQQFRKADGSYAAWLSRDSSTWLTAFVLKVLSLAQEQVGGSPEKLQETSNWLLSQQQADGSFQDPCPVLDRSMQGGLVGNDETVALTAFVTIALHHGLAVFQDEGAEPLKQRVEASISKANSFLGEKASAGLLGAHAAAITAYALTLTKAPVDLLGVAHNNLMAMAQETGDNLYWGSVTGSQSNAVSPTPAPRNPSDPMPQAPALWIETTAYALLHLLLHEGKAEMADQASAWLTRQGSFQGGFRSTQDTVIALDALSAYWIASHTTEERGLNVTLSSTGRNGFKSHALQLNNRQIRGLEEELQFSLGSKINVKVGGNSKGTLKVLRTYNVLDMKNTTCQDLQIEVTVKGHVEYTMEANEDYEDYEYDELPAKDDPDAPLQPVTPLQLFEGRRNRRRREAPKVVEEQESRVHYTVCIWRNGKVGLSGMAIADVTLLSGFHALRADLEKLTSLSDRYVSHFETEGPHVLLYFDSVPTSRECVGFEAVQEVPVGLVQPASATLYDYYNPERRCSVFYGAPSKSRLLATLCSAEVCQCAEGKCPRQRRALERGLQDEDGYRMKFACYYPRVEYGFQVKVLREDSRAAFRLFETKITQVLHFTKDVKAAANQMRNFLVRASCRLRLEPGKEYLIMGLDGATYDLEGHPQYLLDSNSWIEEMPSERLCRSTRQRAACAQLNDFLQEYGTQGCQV
UniProt P0C0L4, sequence (P0C0L5 20-1744, chain 2 of 2, further chain): as the sequence (P0C0L4 20-1744, chain 1 of 2) above, with A888T, D1054G, P1101L, C1102S, L1105I, D1106H, N1157S, V1188A, L1191R, S1267A counted along it

Substance	Kd (C4b (Homo sapiens) [1])	Kd (C4b (Homo sapiens) [2])
Eap34 domains 3-4 (from UniProt Q99QS1)	0.525 µM	–
Eap individual domains (domain 3 or 4) domain 3 or domain 4 (from UniProt Q2FWW1)	–	40 µM
